This is an account of results in publication PMC5448812, “Distinct DNA-binding surfaces in the ATPase and linker domains of MutLγ determine its substrate specificities and exert separable functions in meiotic recombination and mismatch repair” (PLoS Genetics, 2017).

Substrate in this data set: Nc1ncnc2c1ncn2[C@@H]1O[C@H](COP(=O)(O)OP(=O)(O)OP(=O)(O)O)[C@@H](O)[C@H]1O
Put plainly: ATP hydrolysis, thin layer chromatography of [α-32P]-ADP. It counts as biochemical, Saccharomyces cerevisiae. The settings on record: 200 nM MutLγ, 25 mM Tris-HCl pH 7.5, 5 mM MgCl2, 1 mg/ml BSA, 30°C, no DNA, labelled compound as tracer (33 nM [α-32P]-ATP plus cold ATP), both subunits carry a GHKL ATPase domain, single apparent Km.

B1: MutLγ (Mlh1-Mlh3) (Saccharomyces cerevisiae S288C) (protein)
chain 1: MSLRIKALDASVVNKIAAGEIIISPVNALKEMMENSIDANATMIDILVKEGGIKVLQITDNGSGINKADLPILCERFTTSKLQKFEDLSQIQTYGFRGEALASISHVARVTVTTKVKEDRCAWRVSYAEGKMLESPKPVAGKDGTTILVEDLFFNIPSRLRALRSHNDEYSKILDVVGRYAIHSKDIGFSCKKFGDSNYSLSVKPSYTVQDRIRTVFNKSVASNLITFHISKVEDLNLESVDGKVCNLNFISKKSISPIFFINNRLVTCDLLRRALNSVYSNYLPKGNRPFIYLGIVIDPAAVDVNVHPTKREVRFLSQDEIIEKIANQLHAELSAIDTSRTFKASSISTNKPESLIPFNDTIESDRNRKSLRQAQVVENSYTTANSQLRKAKRQENKLVRIDASQAKITSFLSSSQQFNFEGSSTKRQLSEPKVTNVSHSQEAEKLTLNESEQPRDANTINDNDLKDQPKKKQKLGDYKVPSIADDEKNALPISKDGYIRVPKERVNVNLTSIKKLREKVDDSIHRELTDIFANLNYVGVVDEERRLAAIQHDLKLFLIDYGSVCYELFYQIGLTDFANFGKINLQSTNVSDDIVLYNLLSEFDELNDDASKEKIISKIWDMSSMLNEYYSIELVNDGLDNDLKSVKLKSLPLLLKGYIPSLVKLPFFIYRLGKEVDWEDEQECLDGILREIALLYIPDMVPKVDTSDASLSEDEKAQFINRKEHISSLLEHVLFPCIKRRFLAPRHILKDVVEIANLPDLYKVFERC
chain 2: MSQHIRKLDSDVSERLKSQACTVSLASAVREIVQNSVDAHATTIDVMIDLPNLSFAVYDDGIGLTRSDLNILATQNYTSKIRKMNDLVTMKTYGYRGDALYSISNVSNLFVCSKKKDYNSAWMRKFPSKSVMLSENTILPIDPFWKICPWSRTKSGTVVIVEDMLYNLPVRRRILKEEPPFKTFNTIKADMLQILVMHPMISLNVQYTDKLRINTEVLFRSKNITEGLTKHQQMSQVLRNVFGAIIPPDMLKKVSLKFNEYQIEGIISKMPVGLKDLQFIYINGRRYADSAFQGYVDSLFQAQDFGEKGMSLLKTKSVGKPYRSHPVFILDVRCPQTIDDLLQDPAKKIVKPSHIRTIEPLIVKTIRSFLTFQGYLTPDKSDSSFEIVNCSQKTATLPDSRIQISKRNQVLNSKMKIARINSYIGKPAVNGCRINNSTINYEKIKNIRIDGQKSRLRNKLSSRPYDSGFTEDYDSIGKTITDFSISRSVLAKYEVINQVDKKFILIRCLDQSIHNCPLLVLVDQHACDERIRLEELFYSLLTEVVTGTFVARDLKDCCIEVDRTEADLFKHYQSEFKKWGIGYETIEGTMETSLLEIKTLPEMLTSKYNGDKDYLKMVLLQHAHDLKDFKKLPMDLSHFENYTSVDKLYWWKYSSCVPTVFHEILNSKACRSAVMFGDELTRQECIILISKLSRCHNPFECAHGRPSMVPIAELK
notes: full-length heterodimer (175 kDa), N-terminal 6xHis-2xFlag tag kept on Mlh1 (Mlh3 untagged), co-expressed from baculoviruses in Sf9 cells
Usually Km stands for the concentration of substrate that gives half-maximal velocity. Regarding B1, the Km amounted to 64 ± 13 µM.
